T1: Gal-8 (Homo sapiens, UniProt O00214)
T1 construct: made in house; host or cells: Escherichia coli Rosetta 2(DE3)pLysS
T1 sequence (O00214 1-317): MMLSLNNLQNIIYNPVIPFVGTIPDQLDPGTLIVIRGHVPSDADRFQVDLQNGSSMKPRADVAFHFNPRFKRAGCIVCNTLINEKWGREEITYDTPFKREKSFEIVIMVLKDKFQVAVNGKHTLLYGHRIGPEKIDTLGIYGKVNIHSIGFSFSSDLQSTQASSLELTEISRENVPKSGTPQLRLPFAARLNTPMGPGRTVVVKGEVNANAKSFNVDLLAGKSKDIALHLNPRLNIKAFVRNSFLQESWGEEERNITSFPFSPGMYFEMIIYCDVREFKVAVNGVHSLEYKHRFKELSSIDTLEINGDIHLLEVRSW

T2: asialofetuin (ASF; a glycoprotein terminated with LacNAc moieties) (UniProt P12763 19-359, glycoprotein terminated with LacNAc moieties (desialylated glycans))
T2 construct: asialofetuin, the desialylated form of fetuin
T2 sequence (looked up): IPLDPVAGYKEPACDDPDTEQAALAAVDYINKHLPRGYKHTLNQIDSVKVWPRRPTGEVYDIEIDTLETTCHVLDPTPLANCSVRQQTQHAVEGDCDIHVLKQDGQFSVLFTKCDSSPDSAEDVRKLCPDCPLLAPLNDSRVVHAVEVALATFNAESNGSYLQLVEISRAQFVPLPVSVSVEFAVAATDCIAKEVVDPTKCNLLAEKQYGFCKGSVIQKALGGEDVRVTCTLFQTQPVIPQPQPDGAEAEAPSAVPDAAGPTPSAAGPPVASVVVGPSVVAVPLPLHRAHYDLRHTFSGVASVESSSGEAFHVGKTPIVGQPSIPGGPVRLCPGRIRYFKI

B1: Recombinant human galectin-8 (Gal-8) with a full-length peptide linker of 34 aa, N-terminal His-tagged (natural protein, UniProt O00214 1-317, looked up)
chain: T1 sequence (O00214 1-317)
notes: galectin-8 (tandem repeat), human; contains a full-length peptide linker of 34 aa (3717 Da); ca. 36 kDa; cloned in pET-Duet1 (AscI/NotI); plasmid a gift from Prof; L. Elling; source: E. coli Rosetta 2(DE3)pLysS, purified (Ni-NTA); not shown: His tag, N-terminal, kept

Tests used:
Gal-8 [1] = target: T1, Gal-8; experiment: competitive ELISA with immobilized asialofetuin (ASF), Gal-8; format: binding; settings: 1 μM Gal-8, immobilized ASF, DMSO co-solvent
Procedure: (§1) The inhibitory potential of prepared Lac-CS-DDMs toward Gal-1, Gal-3, Gal-8, and Gal-9 was determined using a competitive ELISA assay with immobilized asialofetuin (ASF; a glycoprotein terminated with LacNAc moieties).[41] ASF (0.1 μM in PBS, 50 μL/well) was coated in microtiter plates (Nunc Immuno Sorb, Thermo Fisher Scientific, USA) and incubated overnight. Then, the wells were washed with 3 × 250 μL of PBS buffer containing 0.05% Tween; this washing step followed each incubation step. The wells were then blocked with 2 mg/mL BSA in PBS buffer (250 μL/well) and incubated for 1 h. […] The reaction was stopped by adding 3 M HCl (50 μL per well), accompanied by a color shift to yellow as determined spectrophotometrically by an absorbance microplate reader (Sunrise Tecan Group Ltd., CH). […] A background value, as a mean of the negative control wells containing buffer instead of galectin/ligand, with an absorbance of ca. 0.05–0.075 was subtracted from the measured absorbances. The values of half maximal inhibitory constants (IC50) were calculated from the non-linear regression (dose–response inhibition-variable slope) of the sigmoidal curves using GraphPad Prism 7 (GraphPad Software, USA) from at least three independent experiments with at least two different galectin batches. […]

Gal-9 [2] = target: T3, Gal-9 (Homo sapiens, UniProt O00182, A222P/DEL149-219); experiment: competitive ELISA with immobilized asialofetuin (ASF), Gal-9; format: binding; settings: 1 μM Gal-9, immobilized ASF, DMSO co-solvent
T3 construct: made in house; host or cells: Escherichia coli Rosetta 2(DE3)pLysS
T3 sequence (O00182 with tags, fused parts or gaps DEL149-219/A222P): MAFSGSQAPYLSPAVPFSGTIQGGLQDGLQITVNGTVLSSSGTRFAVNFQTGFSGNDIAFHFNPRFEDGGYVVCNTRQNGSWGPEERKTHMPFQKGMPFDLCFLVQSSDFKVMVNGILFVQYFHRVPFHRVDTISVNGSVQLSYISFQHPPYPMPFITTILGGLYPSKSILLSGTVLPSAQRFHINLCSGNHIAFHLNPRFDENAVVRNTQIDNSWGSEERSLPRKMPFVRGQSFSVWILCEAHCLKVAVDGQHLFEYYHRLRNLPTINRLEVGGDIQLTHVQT
Procedure: as §1

Gal-8 [3] = target: T1, Gal-8; experiment: direct binding ELISA of galectin to immobilized ASF, Gal-8
Gal-9 [4] = target: T3, Gal-9; experiment: direct binding ELISA of galectin to immobilized ASF, Gal-9
Gal-3 = target: T4, Gal-3 (Homo sapiens, UniProt P17931); experiment: direct binding ELISA of galectin to immobilized ASF, Gal-3
T4 construct: made in house; host or cells: Escherichia coli Rosetta 2(DE3)pLysS
T4 sequence (P17931 whole entry): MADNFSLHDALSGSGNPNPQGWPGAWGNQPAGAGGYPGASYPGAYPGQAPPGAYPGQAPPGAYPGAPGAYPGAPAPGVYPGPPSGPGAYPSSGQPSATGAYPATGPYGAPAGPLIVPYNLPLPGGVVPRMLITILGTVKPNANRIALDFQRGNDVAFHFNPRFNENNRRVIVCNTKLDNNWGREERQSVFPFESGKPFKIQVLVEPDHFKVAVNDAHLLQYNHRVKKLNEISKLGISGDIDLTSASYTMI

Gal-1 = target: T5, Gal-1 (Homo sapiens, UniProt P09382, C3S); experiment: direct binding ELISA of galectin to immobilized ASF, Gal-1
T5 construct: made in house; host or cells: Escherichia coli Rosetta 2(DE3)pLysS
T5 sequence (P09382 whole entry C3S): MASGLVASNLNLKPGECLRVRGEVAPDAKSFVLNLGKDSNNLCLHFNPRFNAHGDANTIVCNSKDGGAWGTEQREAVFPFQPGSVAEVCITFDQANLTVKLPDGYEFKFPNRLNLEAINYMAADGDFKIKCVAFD

[5] = DLS hydrodynamic diameter of single components (galectins, Lac-CS-DDMs); format: physicochemical; settings: single component 10 μM in PBS, 25 °C
Procedure: The hydrodynamic diameter of the nanoparticles of galectins, Lac-CS-DDMs, and their aggregates was measured by dynamic light scattering (DLS) using a Zetasizer Nano ZS (Malvern Instruments Ltd., UK) at 25 °C in Malvern disposable plastic microcuvettes (100 μL sample volume). The light scattered at 173° from the incident light was fitted to an autocorrelation function using the method of cumulants (Malvern Instruments Ltd., UK). Commercial sterile PBS was used for sample preparation. […] Mixtures of components were incubated for 90 min at room temperature. The samples were vortexed prior to measurements. The hydrodynamic diameters were determined from five independent repetitions (each 10–50 runs). Multimodal intensity-weighted particle size distribution was used for data analysis.
DLS experiments on the A series of Lac-CS-DDMs and G3-B-AcLac32 were performed to provide insight into the complexity of multivalent galectin/Lac-CS-DDM interactions (Table 2). Unlike ELISA assays that simulate competitive binding on the cell surface, DLS is a straightforward method to evaluate non-surface bound multivalent assemblies.[71] Thus, it is interesting to relate the data obtained by these two methods. Since the transformation of intensity-weighted size distribution to volume-weighted size distribution requires information on the refractive index and absorption of the formed particles and assumes their homogeneity and spherical shape,[72] all presented data come from the analysis of the multimodal intensity-weighted size distribution. As the scattering intensity correlates with the particle diameter to the sixth power, whereas the mass only to the third power, the abundance of larger particles is overestimated at the expense of the smaller ones with respect to the real sample composition, especially in the case of polydisperse samples with multiple size populations.[73] This means that, due to the presence of large aggregates, the particles smaller by orders of magnitude present in the sample may not be detected. Despite the above bottlenecks, we believe that using the size-to-intensity plot is the most appropriate as it is highly sensitive to a starting aggregation, which may be undetectable in the size-to-volume distribution, and it is well suited to compare results between different galectins and Lac-CS-DDM generations to address general differences and trends in their aggregation behavior.

[6] = target: asialofetuin (ASF; a glycoprotein terminated with LacNAc moieties) (UniProt P12763); experiment: ELISA; direct binding: ASF (0.1 μM in PBS) coated on the plate, serial dilution of the galectin in EPBS (2 mM EDTA in PBS), bound galectin detected with anti-His antibody-HRP
[7] = target: T2, asialofetuin (ASF; a glycoprotein …); experiment: as above; settings: both partners purified

Molecule	PI (polydispersity index) [5]	hydrodynamic diameter, aggregates >0.5 μm [5] [μm]	hydrodynamic diameter, small particles <50 nm (first fraction) [5] [nm]	intensity-weighted abundance, aggregates >0.5 μm [5] [%]	intensity-weighted abundance, small particles <50 nm (first fraction) [5] [%]	further results
OC[C@H]1O[C@@H](O[C@H]2[C@H](O)[C@@H](O)C(O)O[C@@H]2CO)[C@H](O)[C@@H](O)[C@H]1O (mixture of isomers) [lactose]						IC50 (Gal-8 [1]): 1680 ± 420 µM; IC50 (Gal-9 [2]): 1350 ± 440 µM
ASF: asialofetuin, a glycoprotein terminated with LacNAc moieties, immobilized competitor in ELISA						Kd (Gal-8 [3]): 0.37 µM; Kd (Gal-9 [4]): 0.3 µM; Kd (Gal-3): 3.2 µM; Kd (Gal-1): 4.4 µM
Gal-1: recombinant human galectin-1, N-terminal His-tagged, C2S mutation	0.4	1.2 ± 0.5	1.3 ± 0.1	32	47	hydrodynamic diameter, small particles <50 nm (second fraction) [5]: 19.0 ± 6.0 nm; intensity-weighted abundance, small particles <50 nm (second fraction) [5]: 21%
Gal-3: recombinant human galectin-3, N-terminal His-tagged	0.6	1.1 ± 0.1	7.9 ± 1.4	13	36	hydrodynamic diameter, aggregates >0.1 μm [5]: 0.4 ± 0.1 μm; intensity-weighted abundance, aggregates >0.1 μm [5]: 40%
Gal-8: recombinant human galectin-8, N-terminal His-tagged, full-length peptide linker of 34 aa	0.7	1.4 ± 0.3	5.4 ± 0.5	80	20	
Recombinant human galectin-1 (Gal-1) with mutation C2S, N-terminal His-tagged (natural protein)						Kd [6]: 4.4 µM
Recombinant human galectin-9 (Gal-9) with a truncated mutated peptide linker HPPYPMPF, N-terminal His-tagged (natural protein)						Kd [6]: 0.3 µM
B1						Kd [7]: 0.37 µM
